Assay results reported in patent US9993536B2, “Peptides and combination of peptides and scaffolds for use in immunotherapy against renal cell carcinoma (RCC) and other cancers” (immatics biotechnologies GmbH, priority 2015, dated 2018).

target: HLA-A*02:01 (Homo sapiens, UniProt P04439, D140Y/D185E/D98H/E176V/E277Q/G131W/G231S/I119V/I121R/I166T/I218V/L300P/L318F/N151K/N90K/P208A/P217A/Q86G/Q94H/R138H/R169H/T345S); assay: MHC binding assay (UV-ligand exchange, beta2m ELISA); details: peptide exchange yield, HLA-A*02:01, UV-ligand exchange
Text: Candidate peptides for T cell based therapies according to the present invention were further tested for their MHC binding capacity (affinity). The individual peptide-MHC complexes were produced by UV-ligand exchange, where a UV-sensitive peptide is cleaved upon UV-irradiation, and exchanged with the peptide of interest as analyzed. Only peptide candidates that can effectively bind and stabilize the peptide-receptive MHC molecules prevent dissociation of the MHC complexes. To determine the yield of the exchange reaction, an ELISA was performed based on the detection of the light chain (β2m) of stabilized MHC complexes. The assay was performed as generally described in Rodenko et al. (Rodenko et al., 2006).
96 well MAXISorp plates (NUNC) were coated over night with 2 ug/ml streptavidin in PBS at room temperature, washed 4× and blocked for 1 h at 37° C. in 2% BSA containing blocking buffer. Refolded HLA-A*02:01/MLA-001 monomers served as standards, covering the range of 15-500 ng/ml. Peptide-MHC monomers of the UV-exchange reaction were diluted 100 fold in blocking buffer. Samples were incubated for 1 h at 37° C., washed four times, incubated with 2 ug/ml HRP conjugated anti-β2m for 1 h at 37° C., washed again and detected with TMB solution that is stopped with […]. Absorption was measured at 450 nm. Candidate peptides that show a high exchange yield (preferably higher than 50%, most preferred higher than 75%) are generally preferred for a generation and production of antibodies or fragments thereof, and/or T cell receptors or fragments thereof, as they show sufficient avidity to the MHC molecules and prevent dissociation of the MHC complexes.

Substance	Peptide exchange (MHC class I binding score)
4 (FLSQDIITV; listed as Homo sapiens) [compound 4]	+++ (≥50 = +++)
5 (YLYPNLTRL; listed as Homo sapiens) [compound 5]	++ (≥20% = ++)
8 (GLASFKSFL; listed as Homo sapiens) [compound 8]	++ (≥20% = ++)
10 (KLLQNNYGL; listed as Homo sapiens) [compound 10]	++ (≥20% = ++)
11 (FIQTEAPKEV; listed as Homo sapiens) [compound 11]	++ (≥20% = ++)
12 (ALDPSGNQLI; listed as Homo sapiens) [compound 12]	++ (≥20% = ++)
13 (KIMAQILTV; listed as Homo sapiens) [compound 13]	+++ (≥50 = +++)
14 (ALLTETIFL; listed as Homo sapiens) [compound 14]	++ (≥20% = ++)
17 (ILAQQVHAL; listed as Homo sapiens) [compound 17]	+++ (≥50 = +++)
18 (YVLDLAAKV; listed as Homo sapiens) [compound 18]	+++ (≥50 = +++)
19 (LLDPGSLQL; listed as Homo sapiens) [compound 19]	++ (≥20% = ++)
21 (RLIQGDQILSV; listed as Homo sapiens) [compound 21]	++ (≥20% = ++)
22 (FLSPPLPSV; listed as Homo sapiens) [compound 22]	+++ (≥50 = +++)
23 (YIQEVVQYI; listed as Homo sapiens) [compound 23]	+++ (≥50 = +++)
24 (FTLGTTVFL; listed as Homo sapiens) [compound 24]	+++ (≥50 = +++)
25 (LLVPAHLVAA; listed as Homo sapiens) [compound 25]	++ (≥20% = ++)
27 (SLSDLLVSL; listed as Homo sapiens) [compound 27]	+++ (≥50 = +++)
28 (FIADLVVGL; listed as Homo sapiens) [compound 28]	++ (≥20% = ++)
30 (QLFYTKIFL; listed as Homo sapiens) [compound 30]	++ (≥20% = ++)

Substance	Peptide exchange (MHC class I binding score)
31 (VLFGLDPAVIKV; listed as Homo sapiens) [compound 31]	+++ (≥50 = +++)
33 (FIADVVEKI; listed as Homo sapiens) [compound 33]	++ (≥20% = ++)
34 (ELNNQNFYL; listed as Homo sapiens) [compound 34]	+++ (≥50 = +++)
35 (VLHSLQTQL; listed as Homo sapiens) [compound 35]	++ (≥20% = ++)
36 (SLFGKKYIL; listed as Homo sapiens) [compound 36]	++ (≥20% = ++)
37 (VLAPVILML; listed as Homo sapiens) [compound 37]	++ (≥20% = ++)
38 (VLLDTILQL; listed as Homo sapiens) [compound 38]	+++ (≥50 = +++)
39 (YLLNLNHLGL; listed as Homo sapiens) [compound 39]	+++ (≥50 = +++)
40 (YIQEHLLQI; listed as Homo sapiens) [compound 40]	+++ (≥50 = +++)
41 (GLLKTLQKL; listed as Homo sapiens) [compound 41]	++ (≥20% = ++)
42 (VILDTGTIQL; listed as Homo sapiens) [compound 42]	++ (≥20% = ++)
43 (YLKDELDEL; listed as Homo sapiens) [compound 43]	+++ (≥50 = +++)
44 (ALFSFVTAL; listed as Homo sapiens) [compound 44]	+++ (≥50 = +++)
45 (ALLGIPLTL; listed as Homo sapiens) [compound 45]	+++ (≥50 = +++)
46 (GLSEVLVQI; listed as Homo sapiens) [compound 46]	+++ (≥50 = +++)
47 (TLAEVRAVQEI; listed as Homo sapiens) [compound 47]	+++ (≥50 = +++)
48 (VVASNIMEV; listed as Homo sapiens) [compound 48]	++ (≥20% = ++)
49 (VLIVEVPGV; listed as Homo sapiens) [compound 49]	+++ (≥50 = +++)
50 (SLSDHIVLL; listed as Homo sapiens) [compound 50]	++ (≥20% = ++)

Other lines, results leading:

Peptide exchange (MHC class I binding score)	Substance
+++ (≥50 = +++)	51 (NLWPMILTL; listed as Homo sapiens) [compound 51]
++ (≥20% = ++)	52 (SILDAVQRV; listed as Homo sapiens) [compound 52]
++ (≥20% = ++)	53 (FLLEIRQTL; listed as Homo sapiens) [compound 53]
++ (≥20% = ++)	54 (ALVAKGLVQA; listed as Homo sapiens) [compound 54]
++ (≥20% = ++)	55 (YLALILPVL; listed as Homo sapiens) [compound 55]
+++ (≥50 = +++)	56 (ILMDFSNSM; listed as Homo sapiens) [compound 56]
++ (≥20% = ++)	57 (SLQKEILYL; listed as Homo sapiens) [compound 57]
++++ (≥75% = ++++)	58 (FLVDFEQSHL; listed as Homo sapiens) [compound 58]
+++ (≥50 = +++)	59 (SLKNNVVSV; listed as Homo sapiens) [compound 59]
+++ (≥50 = +++)	60 (ILWKDIEYV; listed as Homo sapiens) [compound 60]
++ (≥20% = ++)	61 (SLMGILLRI; listed as Homo sapiens) [compound 61]
+++ (≥50 = +++)	62 (VLAGPAFLVQL; listed as Homo sapiens) [compound 62]
++ (≥20% = ++)	63 (GLIEDHFDVTV; listed as Homo sapiens) [compound 63]
++ (≥20% = ++)	64 (LLAASVALA; listed as Homo sapiens) [compound 64]
++ (≥20% = ++)	65 (IIYGGSVTGA; listed as Homo sapiens) [compound 65]
++ (≥20% = ++)	66 (TLLKTIIKV; listed as Homo sapiens) [compound 66]
++ (≥20% = ++)	67 (LLDVLAPLV; listed as Homo sapiens) [compound 67]
++ (≥20% = ++)	68 (YVLTQPPSV; listed as Homo sapiens) [compound 68]
